Experimental data reported in patent US20230192818A1.
Where a chain is given by its changes, count along the chain named.

B1: 11-2 (antibody, V domains shown)
VH: QVQLVESGGGVVQPGRSLRLSCAASGFTFGTYAMHWVRQAPGKGLEWVAVVSTEGGTTYYADSVKGRFTISRDNSKNTLYLQMNSLRAEDTAVYYCAGSYGAYFDYWGQGTLVTVSS
VL: EIVLTQSPATLSLSPGERATLSCRASQSVNSYLAWYQQKPGQAPRLLIYDVSNRATGIPARFSGSGSGTDFTLTISSLEPEDFAVYYCQQFSNWPTFGGGTKVEIK
B2: 12-6 (antibody, V domains shown)
VH: QVQLVESGGGVVQPGRSLRLSCAASGFIFRNYAMHWVRQAPGKGLEWVAVISYDGSNKYYADSVKGRFTISRDNSKNTLYLQMNSLRAEDTAVYYCARPRGGSYHGAFDIWGQGTLVTVSS
VL: B1 VL with V29L, N30G, S31N, V51S, F91R, S92N, N93W, W94P, P95Y
B3: 11-9 (antibody, V domains shown)
VH: B1 VH
VL: EIVLTQSPATLSLSPGERATLSCRASQSVSYYLAWYQQKPGQAPRLLIYDSSNRATGIPARFSGSGSGTDFTLTISSLEPEDFAVYYCQQRSNWQGNFGGGTKVEIK
B4: 11-20 (antibody, V domains shown)
VH: B2 VH with I28T, R30D, N31D, R98S, R100H, G101S, H105W, G106A
VL: EIVLTQSPATLSLSPGERATLSCRASQSVGSYLAWYQQKPGQAPRLLIYDAVNRATGIPARFSGSGSGTDFTLTISSLEPEDFAVYYCQQRSLWPFGGGTKVEIK
B5: 12-1 (antibody, V domains shown)
VH: B2 VH with I28T, R30S, N31Y, A33G, I51T, R100Q, H105F, G106A
VL: B4 VL with G30S, Y32H, A51V, V52S, S92D, L93T, W94F, P95T
B6: 11-4 (antibody, V domains shown)
VH: QVQLVESGGGVVQPGRSLRLSCAASGFTFDNYAMHWVRQAPGKGLEWVAVISDDGRNKYYADSVKGRFTISRDNSKNTLYLQMNSLRAEDTAVYYCAKDNYYDSSGYYGGGMDVWGQGTLVTVSS
VL: B3 VL with S30G, Y31S, S51A, S52V, S92F, N93T, Q95P, G96T, N97T
B7: 11-16 (antibody, V domains shown)
VH: QVQLVESGGGVVQPGRSLRLSCAASGFTFSDHYMHWVRQAPGKGLEWVAVISYDGSNEYYADSVKGRFTISRDNSKNTLYLQMNSLRAEDTAVYYCAKDLGPAGVDYWGQGTLVTVSS
VL: B3 VL with V29L, S30G, Y31R, R91Y, S92G, N93D, Q95P, G96E, N97T
B8: 12-2 (antibody, V domains shown)
VH: B2 VH with N31S, N57S, R100S, G101S, H105F, G106P, A107P, I110Y
VL: B3 VL with S30D, Y31S, Y32R, S51T, N93T, Q95P, G96P, N97V
B9: 12-11 (antibody, V domains shown)
VH: QVQLVESGGGVVQPGRSLRLSCAASGFSFGGYGMHWVRQAPGKGLEWVAVISYDGSNEYYADSVKGRFTISRDNSKNTLYLQMNSLRAEDTAVYYCAKSYSGSYSSYFDYWGQGTLVTVSS
VL: B3 VL with S30G, Y31S, S51A, S52V, S92F, N93T, Q95P, G96T, N97T
B10: 11-10 (antibody, V domains shown)
VH: QVQLVESGGGVVQPGRSLRLSCAASGFIFNNYGMHWVRQAPGKGLEWVAVISYDGSNIYYADSVKGRFTISRDNSKNTLYLQMNSLRAEDTAVYYCARDYNDGIGSYTGAFDSWGQGTLVTVSS
VL: B3 VL with Y31T, Y32S, S51A, S52T, R91H, S92Y, N93S, Q95P, G96L, N97T
B11: 11-6 (antibody, V domains shown)
VH: QVQLVESGGGVVQPGRSLRLSCAASGFTFGTYAMHWVRQAPGKGLEWVAVVSTEGGTTYYADSVKGRFTISRDNSKNTLYLQMNSLRAEDTAVYYCAGEYYDSSGSSIDYWGQGTLVTVSS
VL: B3 VL with S30D, Y31S, Y32S, S51A, R91Q, Q95P, N97T
B12: 12-5 (antibody, V domains shown)
VH: QVQLVESGGGVVQPGRSLRLSCAASGFTFSYYGMHWVRQAPGKGLEWVAVTSYDGSNKYYSDSVKGRFTISRDNSKNTLYLQMNSLRAEDTAVYYCARPKSGSYATYFDYWGQGTLVTVSS
VL: B3 VL with S28N, S30G, Y31Q, Y32S, S51A, S92E, Q95P, G96P, N97T
B13: 11-3 (antibody, V domains shown)
VH: QVQLVESGGGVVQPGRSLRLSCAASGFTFSNFAMHWVRQAPGKGLEWVAVISYDGNHEYYADSVKGRFTISRDNSKNTLYLQMNSLRAEDTAVYYCAKTNSGSYGGMFDYWGQGTLVTVSS
VL: EIVLTQSPATLSLSPGERATLSCRASQNIGNHLAWYQQKPGQAPRLLIYDASNRATGIPARFSGSGSGTDFTLTISSLEPEDFAVYYCQQRDNGPPEGTFGGGTKVEIK
B14: 12-17 (antibody, V domains shown)
VH: B9 VH with S28T, G31S, S56N, N57H, K98R, S99P, Y100H, S105T, S106A
VL: B3 VL with Y31K, Y32F, S51A, Q89H, R91H, N93D, Q95P, G96L, N97T
B15: 12-4 (antibody, V domains shown)
VH: B12 VH with T51I, S56T, K58D, S61A, R98K, K100H, A105R, T106G
VL: B3 VL with S30G, Y31S, Y32H, S51A, R91I, Q95P, G96L, N97T
B16: 12-7 (antibody, V domains shown)
VH: B2 VH with I28T, R30S, N31I, S56T, K58E, R98K, P99S, H105Y, I110Y
VL: B3 VL with V29L, S30G, Y31N, S92T, N93D, Q95P, G96P, N97S
B17: 12-9 (antibody, V domains shown)
VH: B13 VH with N31S, F32Y, A33G, N56T, H57T, K98R, T99P, N100S, G105L, M107F
VL: B3 VL with Y31T, Y32S, S51A, S52T, Q90R, S92T, N93D, Q95P, G96P, N97T
B18: 11-15 (antibody, V domains shown)
VH: QVQLVESGGGVVQPGRSLRLSCAASGFIFSNYGMHWVRQAPGKGLEWVAVISYDGSDKYYADSVKGRFTISRDNSKNTLYLQMNSLRAEDTAVYYCARDDYMYGFEHWGQGTLVTVSS
VL: EMVVPQSPPTVSLSPGERATLSCRASQSVGSYLAWYQQKPGQAPRLLIYDAVNRATGIPARFSGSGSGTDFTLTISSLEPEDFAVYYCQQRSDSITFGGGTKVEIK
B19: 11-11 (antibody, V domains shown)
VH: QVQLVESGGGVVQPGRSLRLSCAASGFTFDNYAMHWVRQAPGKGLEWVAVISYDGSNKYYADSVKGRFTISRDNSKNTLYLQMNSLRAEDTAVYYCLREGILWDVWGQGTLVTVSS
VL: EIVLTQSPATLSLSPGERATLSCRASHNINNFLAWYQQKPGQAPRLLIYDTSNRATGIPARFSGSGSGTDFTLTISSLEPEDFAVYYCQQGRNWPPSSFGGGTKVEIK
B20: 11-1 (antibody, V domains shown)
VH: QVQLVESGGGVVQPGRSLRLSCAASGFTFGSYGMHWVRQAPGKGLEWVAVISYDGGDEYYADSVKGRFTISRDNSKNTLYLQMNSLRAEDTAVYYCARDISRYGYYGMDVWGQGTLVTVSS
VL: EIVLTQSPATLSLSPGERATLSCRASQSLGSFLAWYQQKPGQAPRLLIYDASNRATGIPARFSGSGSGTDFTLTISSLEPEDFAVYYCQQRALWPRLTFGGGTKVEIK
B21: 12-13 (antibody, V domains shown)
VH: B9 VH with G30S, G31T, E58K, K98R, S99P, Y100L, S105W, Y107W, Y110P
VL: B20 VL with L29V, F32Y, S52V, A92N, L93S, R96P, L97A
B22: 12-8 (antibody, V domains shown)
VH: B2 VH with I28T, R30N, A33V, S56T, K58D, P99G, R100E, G101S, H105W, I110Y
VL: B19 VL with H27Q, N30G, F32H, T51V, G91R, R92K, N93S, S97F, S98T
B23: 12-10 (antibody, V domains shown)
VH: B2 VH with N31S, N57I, P99T, H105Y, I110Y
VL: B20 VL with L29V, G30N, F32D, A92T, L93D, R96P, L97A
B24: 12-15 (antibody, V domains shown)
VH: B9 VH with E58K, K98R, S99P, S105I, Y107W
VL: B20 VL with L29V, G30S, F32H, A51V, Q90V, A92S, L93D, R96P
B25: 11-18 (antibody, V domains shown)
VH: B9 VH with S28T, G31T, G33A, S56N, E58K, S99T, Y100G, S105Y, Y107W
VL: B20 VL with G30T, F32Y, A92H, L93Y, R96P, L97I
B26: 12-16 (antibody, V domains shown)
VH: B2 VH with N31S, N57S, P99T, R100L, H105F, G106A
VL: B20 VL with G30D, F32Y, A51V, A92R, L93G, R96P, L97V

Target: biotinylated SARS-CoV-2 S1 variant B.1.351 (Example 5) (SARS-CoV-2) (UniProt P0DTC2)
Experiment: phage ELISA screening

Row | Binder | ELISA
1 | B1 | 19.4
2 | B2 | 22.4
3 | B3 | 9.14
4 | B4 | 3.42
5 | B5 | 29.2
6 | B6 | 16.3
7 | B7 | 4.65
8 | B8 | 25.9
9 | B9 | 18.8
10 | B10 | 7.06
11 | B11 | 12.6
12 | B12 | 22.8
13 | B13 | 17.3
14 | B14 | 16.2
15 | B15 | 23.5
16 | B16 | 22.2
17 | B17 | 19.9
18 | B18 | 4.97
19 | B19 | 6.43
20 | B20 | 21.7
21 | B21 | 18.1
22 | B22 | 21.4
23 | B23 | 19.7
24 | B24 | 17.6
25 | B25 | 3.7
26 | B26 | 17
